The record followed here is the RNAGym collection of RNA variant scans (doi:10.1093/molbev/msab373).

B1: Azoarcus group I ribozyme (parent)
chain: GUGCCUUGCGCCGGGAAACCACGCAAGGGAUGGUGUCAAAUUCGGCGAAACCUAAGCGCCCGCCCGGGCGUAUGGCAACGCCGAGCCAAGCUUCGGCGCCUGCGCCGAUGAAGGUGUAGAGACUAGACGGCACCCACCUAAGGCAAACGCUAUGGUGAAGGCAUAGUCCAGGGAGUGGCGAAAGUCACACAAACCGG

In this data set the parent is B1. The experiment in a line: reverse-splicing fitness (ratio to wild type); higher = more active; in vitro selection; Mg2+ level not given. In short, it runs like this:
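An in vitro group I ribozyme library with randomized positions was T7-transcribed and gel-purified. In triplicate, 10 pmol RNA in EPPS pH 7.5 was reacted with 50 pmoles of a 30-nt RNA substrate for 1 h at 37 °C across several added MgCl2 levels (1–48 mM), then stopped with EDTA. Products were reverse transcribed from a substrate-complementary primer, PCR-amplified and sequenced (HiSeq 4000). Fitness is a variant's read proportion after selection over that before, normalised to wild type.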
Consider A111U A120U C150G C169G U176G, for which the reverse-splicing fitness was 0.00237.

Consider C82U A111G A120U A145U C150A, for which the reverse-splicing fitness worked out at 0.00631.

Take A111C A120G A145U C169G U176C: the reverse-splicing fitness was found to be 0.0343.

As for C82G A111C A145U C150U C169U U176G, the reverse-splicing fitness worked out at 0.00778.

C82A A111U A120U A145C C150G C169G U176G: the reverse-splicing fitness turned out to be 0.00242.

A111G A120U A145C C150U U176A: the reverse-splicing fitness stood at 0.0932.

As to C82G A111G A120C A145G C150U C169A U176C, the reverse-splicing fitness was determined as 0.0173.

On to A120C A145G C169U U176A, for which the reverse-splicing fitness is 0.153.

For the variant C82G A111G A120U C150A U176C, the reverse-splicing fitness was 0.00806.

Regarding C82G A120C A145C C150A C169U U176G, the reverse-splicing fitness came to 0.0044.

C82U A120U A145U C169A: the reverse-splicing fitness came to 0.00208.

In the case of A111C A120G A145C C150U, the reverse-splicing fitness worked out at 0.0418.

In the case of C82A A111U A120U A145C C150A C169A U176G, the reverse-splicing fitness came to 0.00263.

Regarding C82G A111U A120C A145G C150G C169U, the reverse-splicing fitness was found to be 0.0106.

As to A120U C150U C169G, the reverse-splicing fitness was determined as 0.15.

In the case of C82G A111U A120C A145G C150A U176A, the reverse-splicing fitness was determined as 0.011.

For C82G A120U A145C C150A U176G, the reverse-splicing fitness came out at 0.00299.

As to C82U A111U A145C C169A U176G, the reverse-splicing fitness was determined as 0.00457.

Take C82A A111G A120C A145G C150G C169A U176A: the reverse-splicing fitness was 0.0145.

With C82A A111C A120U A145U C150U C169A U176C, the reverse-splicing fitness amounted to 0.00305.

On to C82A A111U A120U C150U U176C, for which the reverse-splicing fitness turned out to be 0.00953.

C82A A145G C150A U176G: the reverse-splicing fitness turned out to be 0.0222.

Consider C82A A145G C150A U176A, for which the reverse-splicing fitness is 0.0679.

Consider A111C A120G A145U C150G U176C, for which the reverse-splicing fitness turned out to be 0.0169.

For the variant A111G A120C A145C C169U U176G, the reverse-splicing fitness turned out to be 0.00718.

Turning to A111C A120U A145C C150U C169U U176A, the reverse-splicing fitness was 0.00478.

C82U A111G A120C A145U C150U: the reverse-splicing fitness came to 0.0338.

As for C82A A120U A145G C150G C169U U176C, the reverse-splicing fitness was 0.00657.

Regarding A111C A120G A145U C169A U176G, the reverse-splicing fitness was 0.0051.

As for C82A A111U A120C A145C C150G C169A U176A, the reverse-splicing fitness was 0.00999.

Turning to A111C A120C C150G C169U U176C, the reverse-splicing fitness worked out at 0.014.

Turning to A120C A145C C150G C169A, the reverse-splicing fitness is 0.0111.

On to C82U A111U C150U C169U, for which the reverse-splicing fitness came out at 0.0102.

On to C82A A111G A145G C150A U176C, for which the reverse-splicing fitness came out at 0.0453.

As to C82A A111C A120U A145C C169U U176A, the reverse-splicing fitness is 0.00272.

With C82G A111U A120G C150U C169A U176C, the reverse-splicing fitness was 0.0182.

Consider C82A A111U A145C C169A U176G, for which the reverse-splicing fitness came to 0.00702.

Regarding C82A A111G A120G A145U C150G U176G, the reverse-splicing fitness came to 0.00378.

Take C82G A120G C150U C169U U176A: the reverse-splicing fitness is 0.023.

In the case of A120U A145U C150A U176G, the reverse-splicing fitness was 0.0665.

Regarding C82U A111G A120C A145U C150G U176C, the reverse-splicing fitness was 0.00882.

C82G A111G A120U A145C C150U C169G U176G: the reverse-splicing fitness was 0.00185.

On to C82A A111G A120C C150A C169A U176C, for which the reverse-splicing fitness was 0.0231.

As for A111G A120C C150U C169U U176G, the reverse-splicing fitness is 0.00603.

A120G A145U C150G C169G U176A: the reverse-splicing fitness came out at 0.024.

With A120G C150G C169G U176C, the reverse-splicing fitness stood at 0.00733.

For the variant C82U A111U A145C C169G U176G, the reverse-splicing fitness turned out to be 0.00539.

As for C82G A111G A120C A145C C150G C169A U176C, the reverse-splicing fitness was 0.0103.

Take A120G A145U C150G U176G: the reverse-splicing fitness stood at 0.00612.

Regarding C82G A111G A120U A145C C150G C169A, the reverse-splicing fitness was determined as 0.00256.

As to A111G A120G A145U C150U U176G, the reverse-splicing fitness was 0.00788.

As for C82U A111C A120G C150A C169G, the reverse-splicing fitness came to 0.00808.

Turning to C82A A111C A120G A145U U176G, the reverse-splicing fitness came out at 0.00466.

On to C82G A120U A145C C169U, for which the reverse-splicing fitness was found to be 0.00694.

Consider A111G A120C A145C C150U C169G, for which the reverse-splicing fitness was determined as 0.00938.

With C82U A120U A145C C150U U176G, the reverse-splicing fitness stood at 0.00482.

Regarding C82A A111G A120C A145G C150A C169G U176C, the reverse-splicing fitness was determined as 0.0242.

Consider C82A A111G A120C A145G C150A C169G U176G, for which the reverse-splicing fitness stood at 0.00711.

On to C82G A111U A145U C150A C169G, for which the reverse-splicing fitness is 0.00845.

Regarding C82A A145U C150G C169G U176A, the reverse-splicing fitness was 0.00926.

Regarding C82U A111U C150A C169G U176A, the reverse-splicing fitness came out at 0.0193.

Regarding C82A A111C A120G A145U C150U C169U U176C, the reverse-splicing fitness stood at 0.012.

On to C82U A111U A120U A145G U176A, for which the reverse-splicing fitness stood at 0.00732.

As for C82U A111G A120G A145G C150A C169U, the reverse-splicing fitness was 0.00914.

As to C82U A145U C150U U176G, the reverse-splicing fitness was found to be 0.0898.

Regarding C82A A111G A120G A145C C150A, the reverse-splicing fitness came to 0.0077.

For the variant C82A A111U A120U A145G C150G C169A U176A, the reverse-splicing fitness turned out to be 0.0119.

Consider C150G C169A U176G, for which the reverse-splicing fitness stood at 0.00618.

As for C82U A111G A145U C169U U176G, the reverse-splicing fitness came to 0.00468.

On to C82G A111U A145G C169U U176G, for which the reverse-splicing fitness came to 0.00532.

In the case of C82A A111U A120U C150A C169G U176C, the reverse-splicing fitness turned out to be 0.00511.

C82A A111U A120U C150A C169G U176G: the reverse-splicing fitness came to 0.00222.

As for C82A A111G A120C C150G, the reverse-splicing fitness turned out to be 0.0106.

As to C82A A120G A145G C169U U176C, the reverse-splicing fitness worked out at 0.0195.

Regarding C82U A111U A145G C150G U176C, the reverse-splicing fitness amounted to 0.0196.

Take C82A A120C A145C C150U C169A: the reverse-splicing fitness was 0.00982.

As to C82A A111U A120C A145U C169U U176A, the reverse-splicing fitness worked out at 0.0151.

For the variant C82A A145G C169A U176C, the reverse-splicing fitness was 0.0322.

On to C82A A111G A120G A145G C169G U176G, for which the reverse-splicing fitness came to 0.00435.

On to C82A A111U A120U A145C C150U C169G U176A, for which the reverse-splicing fitness amounted to 0.00366.

As to C82U A111G A120G C169U U176G, the reverse-splicing fitness is 0.00533.

With C82U A120G A145G C150U C169U U176A, the reverse-splicing fitness was 0.0207.

Take C82A A111G A120C A145U U176A: the reverse-splicing fitness was found to be 0.0171.

As for C82A A111U A120G A145G C150G C169G U176G, the reverse-splicing fitness amounted to 0.00619.
